The values that follow are results of earlier work, collected in US6100293A, “Tetracyclic triterpene derivatives with immunosuppressant activity” (Merck & Co., Inc., priority 1998, dated 2000).

The pIC50 is the negative decadic logarithm of the IC50, by convention in mol/L.

pIC50: −log10 of the molar value.

For this data set, the target named is T1, Kv 1.3 channels (Homo sapiens, UniProt P22001).
T1 construct: expressed in transfected cells; host or cells: CHO cells
To be noted: reference peptide used at saturating concentration to set the efflux window; read-out: IC50 (blocker of Kv 1.3 channels).

T1 sequence (P22001 whole entry): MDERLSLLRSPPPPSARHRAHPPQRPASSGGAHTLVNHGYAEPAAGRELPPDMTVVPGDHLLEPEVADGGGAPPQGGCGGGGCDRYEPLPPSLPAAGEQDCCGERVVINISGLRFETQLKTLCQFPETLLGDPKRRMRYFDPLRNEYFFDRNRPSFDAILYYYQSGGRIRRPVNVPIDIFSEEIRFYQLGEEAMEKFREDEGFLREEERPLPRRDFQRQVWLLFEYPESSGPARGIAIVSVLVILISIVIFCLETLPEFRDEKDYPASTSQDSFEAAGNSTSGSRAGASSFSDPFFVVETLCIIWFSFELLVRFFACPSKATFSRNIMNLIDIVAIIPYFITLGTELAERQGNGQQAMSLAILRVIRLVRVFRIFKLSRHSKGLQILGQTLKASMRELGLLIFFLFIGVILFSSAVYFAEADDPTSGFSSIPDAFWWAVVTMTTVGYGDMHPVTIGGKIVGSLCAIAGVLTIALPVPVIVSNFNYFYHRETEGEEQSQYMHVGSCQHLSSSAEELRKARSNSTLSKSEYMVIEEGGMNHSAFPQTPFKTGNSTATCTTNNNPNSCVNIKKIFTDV

Take “margatoxin (TIINVKCTSPKQCLPPCKAQFGQSAGAKCMNGKCKCYPH; UniProt P40755 1-39, looked up)”: the pIC50 is 10.00.
